# Source: patent US20240287172A1 (SCIRHOM, published 2024)
# Changes are numbered by the printed parent chain.
# T1: hiR2-FL-Q580A-T7 (human, UniProt Q6PJF5 1-856)
# T1 sequence: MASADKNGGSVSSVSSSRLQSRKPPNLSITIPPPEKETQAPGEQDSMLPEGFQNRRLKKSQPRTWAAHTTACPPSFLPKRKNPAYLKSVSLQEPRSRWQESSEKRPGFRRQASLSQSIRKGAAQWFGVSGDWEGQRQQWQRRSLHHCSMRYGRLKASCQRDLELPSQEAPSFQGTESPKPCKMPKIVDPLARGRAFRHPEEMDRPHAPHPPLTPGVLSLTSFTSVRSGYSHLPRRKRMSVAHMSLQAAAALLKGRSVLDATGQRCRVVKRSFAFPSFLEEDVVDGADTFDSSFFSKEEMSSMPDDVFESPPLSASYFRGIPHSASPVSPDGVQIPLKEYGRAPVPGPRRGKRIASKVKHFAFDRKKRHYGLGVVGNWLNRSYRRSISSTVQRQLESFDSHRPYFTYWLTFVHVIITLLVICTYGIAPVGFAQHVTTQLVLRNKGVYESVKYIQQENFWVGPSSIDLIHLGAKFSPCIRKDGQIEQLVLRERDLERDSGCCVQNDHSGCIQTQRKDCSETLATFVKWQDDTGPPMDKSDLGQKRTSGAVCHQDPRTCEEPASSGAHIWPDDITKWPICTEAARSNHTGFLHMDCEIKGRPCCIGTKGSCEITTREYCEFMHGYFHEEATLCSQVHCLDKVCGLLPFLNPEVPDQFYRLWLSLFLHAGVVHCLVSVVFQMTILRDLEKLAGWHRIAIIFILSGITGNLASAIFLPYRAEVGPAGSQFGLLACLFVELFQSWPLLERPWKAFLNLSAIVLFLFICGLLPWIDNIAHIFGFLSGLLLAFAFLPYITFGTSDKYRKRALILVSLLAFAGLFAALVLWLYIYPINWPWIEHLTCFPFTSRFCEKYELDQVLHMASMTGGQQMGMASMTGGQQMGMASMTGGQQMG
# T2: hiR2-FL-H585A-T7 (human, UniProt Q6PJF5 1-856)
# T2 sequence: T1 sequence with A580Q, H585A
# B1: antibody 3 (antibody, V domains shown)
# VH: QVTLKESGPGILQPSQTLSLTCSFSGFSLTTFAMGIGWVRQPSGKGLEWLAHIWWDGEKYNNPVLKSRLTISKDTSKNQVFLRIANVDTPDTATYYCARISSIYYIIDNWGQGTSVTVSS
# VL: DIVLTQSPATLSVTPGHSVSLSCRASQSISNNLHWYQKKSHESPRLLIKYVSQSISGIPSRFSGSGSGTDFTLSINSVETEDFGMYFCQQSYNWPLTFGAGTKLELK
# notes: mouse IgG, kappa light chain; also called clone #3; purified antibody 3
# Assays:
# [1] = target: T1, hiR2-FL-Q580A-T7; experiment: FACS on MEF-DKO cells expressing the variant, 3 µg/ml antibody
# Method in brief: (§1)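 Read-out is PE fluorescence by flow cytometry after two-step staining: antibody at 3 μg/ml for 1 hour on ice, then PE-labelled goat anti-mouse IgG F(ab′)2 (1:100) for 1 hour on ice.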
# [2] = target: T2, hiR2-FL-H585A-T7; experiment: as above
# Method in brief: as §1
binder,measurement,setting,value
B1,loss of binding vs wild type,[1],≥ 30%
same,loss of binding vs wild type,[2],≥ 30%
